According to patent publication US20130129714A1 (UAB RESEARCH FOUNDATION, published 2013):
Bridges are numbered along the chain shown (N, C = ends). Where no end group is shown, it is not given here.

Columns and labels:
[1] = target: T1, human Tamm-Horsfall protein (human, UniProt P07911 25-587); assay: competition studies for binding to Tamm-Horsfall protein
[2] = target: T1, human Tamm-Horsfall protein; assay: competitive ELISA; light chains bound in the wells, Tamm-Horsfall protein in solution, linear peptide as inhibitor
Text: (§1) Peptides known to react with the Tamm-Horsfall protein in the yeast two-hybrid assay were synthesized, cyclized, and used as inhibitors in a competitive ELISA experiment. The peptides were cyclized by adding cysteine residues to the amino and carboxyl-terminal portions of the peptides and generating an intramolecular disulfide bridge (FIG. 4). Cyclization facilitates formation of the loop structure in solution. Both the linear and cyclized peptides inhibited the binding of the Tamm-Horsfall protein to the immunoglobulin light chains bound in the wells of the microtiter plate, but the efficiency of inhibition was increased by cyclization of the peptide inhibitor.

[3] = target: T1, human Tamm-Horsfall protein; assay: competitive ELISA; light chains bound in the wells, Tamm-Horsfall protein in solution, cyclized peptide as inhibitor
Text: as §1

[4] = target: T1, human Tamm-Horsfall protein; assay: competitive ELISA (FIG. 7)
Text: Mutation of the CDR3 sequence to disrupt the loop structure by substituting amino acid residues with phenyalanine confirmed that the secondary structure was an important determinant of binding (FIG. 6). The inhibitory capability of cyclized experimental ([…] (SEQ ID NO:32)) and control ([…] (SEQ ID NO:33)) peptides were then compared in a competitive ELISA assay. The experimental peptide served as a very efficient inhibitor of the binding interactions between the human Tamm-Horsfall protein and six different human immunoglobulin light chains (FIG. 7).

MQGTHWPPLT (also called SSH23 CDR3 peptide) [synthetic peptide (MQGTHWPPLT (SEQ ID NO:3)) identical to the CDR3 region of SSH23]: binds [1].

For QSYDNTLSGSYVF (also called uncyclized peptide 1) [peptide 1 (QSYDNTLSGSYVF (SEQ ID NO:1)), linear], the IC50 [2] was 55 nM.

B1: peptide 2 (LSADSSGSYLYVF (SEQ ID NO:2)), cyclized (peptide)
peptide: CLSADSSGSYLYVFC
modifications: disulfide 1-15
notes: Built from the words 'cyclized by adding cysteine residues to the amino and carboxyl-terminal portions of the peptides'; also called cyclized peptide 2
In the case of B1, the IC50 [3] is reported as 24 nM.

B2: cyclized peptide (CLSADSSGSYLYVC) (SEQ ID NO:32) (peptide)
peptide: CLSADSSGSYLYVC
modifications: disulfide 1-14
notes: also called cyclized experimental peptide; experimental peptide
B2: binds [4].

With LSADSSGSYLYVF (also called uncyclized peptide 2) [peptide 2 (LSADSSGSYLYVF (SEQ ID NO:2)), linear] the IC50 [2] was 90.9 nM.
